These results are taken from patent US20190177417A1 (BIOATLA, published 2019).

The target of assay [1] is T1, Axl protein (human, UniProt P30530 26-451).
T1 construct: extracellular domain; also called human Axl; hAxl
T1 sequence (looked up): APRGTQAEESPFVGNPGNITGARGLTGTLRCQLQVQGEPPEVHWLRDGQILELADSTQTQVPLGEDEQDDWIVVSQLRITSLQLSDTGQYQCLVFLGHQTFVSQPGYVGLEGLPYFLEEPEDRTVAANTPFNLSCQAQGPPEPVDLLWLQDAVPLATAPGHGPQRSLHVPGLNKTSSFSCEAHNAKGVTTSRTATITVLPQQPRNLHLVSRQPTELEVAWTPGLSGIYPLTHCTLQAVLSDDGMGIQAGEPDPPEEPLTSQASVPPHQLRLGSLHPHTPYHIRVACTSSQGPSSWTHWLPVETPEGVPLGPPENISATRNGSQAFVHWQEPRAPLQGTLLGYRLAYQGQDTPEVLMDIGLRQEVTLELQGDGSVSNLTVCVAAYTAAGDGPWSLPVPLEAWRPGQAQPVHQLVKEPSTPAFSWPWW
Nature of the assay: ELISA, 1:3 dilution, pH 6.0 over pH 7.4. Background: In an ELISA, binding on a coated surface is turned into a signal by an enzyme label.

For assay [2], the target named is T1, Axl protein. Briefly: ELISA, 1:9 dilution, pH 6.0 over pH 7.4.

B1: LC-T094C (antibody, V domains shown)
VH: EVQLVQSGAEVKKPGATVKISCKVSGYSFTGHTMNWIRQPPGKGLEWIGLIKPSNGGTSYNQKFKGRVTISADKSISTAYLQWSSLKASDTAMYYCAHGHYESYFAMDYWGQGTLVTVSS
VL: DIQMTQSPSSLSASVGDRVTITCKASQDVSSAVAWYQQKPGQAPRLLIYWASTRHTGVPSRFSGSGSGTEFTLTISSLQPDDFATYYCQEHFSCPLTFGQGTKVEIK
For B1, the “Affinity ELISA CPE mutant ratio (1:3, pH 6.0/7.4)” value with Axl protein [1] is 1.42 ratio. Also, in the assay with Axl protein [2], the “Affinity ELISA CPE mutant ratio (1:9, pH 6.0/7.4)” value was 1.77 ratio.

B2: LC-H091C (antibody, V domains shown)
VH: EVQLVQSGAEVKKPGATVKISCKVSGYSFTGHTMNWIRQPPGKGLEWIGLIKPSNGGTSYNQKFKGRVTISADKSISTAYLQWSSLKASDTAMYYCAHGHYESYFAMDYWGQGTLVTVSS
VL: DIQMTQSPSSLSASVGDRVTITCKASQDVSSAVAWYQQKPGQAPRLLIYWASTRHTGVPSRFSGSGSGTEFTLTISSLQPDDFATYYCQECFSTPLTFGQGTKVEIK
In the case of B2, the “Affinity ELISA CPE mutant ratio (1:3, pH 6.0/7.4)” value with Axl protein [1] is 4 ratio. In addition, the “Affinity ELISA CPE mutant ratio (1:9, pH 6.0/7.4)” value with Axl protein [2] came out at 3.02 ratio.

B3: LC-H091I (antibody, V domains shown)
VH: EVQLVQSGAEVKKPGATVKISCKVSGYSFTGHTMNWIRQPPGKGLEWIGLIKPSNGGTSYNQKFKGRVTISADKSISTAYLQWSSLKASDTAMYYCAHGHYESYFAMDYWGQGTLVTVSS
VL: DIQMTQSPSSLSASVGDRVTITCKASQDVSSAVAWYQQKPGQAPRLLIYWASTRHTGVPSRFSGSGSGTEFTLTISSLQPDDFATYYCQEIFSTPLTFGQGTKVEIK
B3: in the assay with Axl protein [1], the “Affinity ELISA CPE mutant ratio (1:3, pH 6.0/7.4)” value was found to be 1.55 ratio. For the same molecule, in the assay with Axl protein [2], the “Affinity ELISA CPE mutant ratio (1:9, pH 6.0/7.4)” value was found to be 2.15 ratio.

B4: LC-A051P (antibody, V domains shown)
VH: EVQLVQSGAEVKKPGATVKISCKVSGYSFTGHTMNWIRQPPGKGLEWIGLIKPSNGGTSYNQKFKGRVTISADKSISTAYLQWSSLKASDTAMYYCAHGHYESYFAMDYWGQGTLVTVSS
VL: DIQMTQSPSSLSASVGDRVTITCKASQDVSSAVAWYQQKPGQAPRLLIYWPSTRHTGVPSRFSGSGSGTEFTLTISSLQPDDFATYYCQEHFSTPLTFGQGTKVEIK
Turning to B4, in the assay with Axl protein [1], the “Affinity ELISA CPE mutant ratio (1:3, pH 6.0/7.4)” value was 1.92 ratio. The “Affinity ELISA CPE mutant ratio (1:9, pH 6.0/7.4)” value with Axl protein [2] is 1.57 ratio.

B5: LC-P095A (antibody, V domains shown)
VH: EVQLVQSGAEVKKPGATVKISCKVSGYSFTGHTMNWIRQPPGKGLEWIGLIKPSNGGTSYNQKFKGRVTISADKSISTAYLQWSSLKASDTAMYYCAHGHYESYFAMDYWGQGTLVTVSS
VL: DIQMTQSPSSLSASVGDRVTITCKASQDVSSAVAWYQQKPGQAPRLLIYWASTRHTGVPSRFSGSGSGTEFTLTISSLQPDDFATYYCQEHFSTALTFGQGTKVEIK
Take B5: the “Affinity ELISA CPE mutant ratio (1:3, pH 6.0/7.4)” value in the assay with Axl protein [1] is 2.52 ratio. For the same molecule, the “Affinity ELISA CPE mutant ratio (1:9, pH 6.0/7.4)” value with Axl protein [2] was 2.99 ratio.

B6: LC-H091L (antibody, V domains shown)
VH: EVQLVQSGAEVKKPGATVKISCKVSGYSFTGHTMNWIRQPPGKGLEWIGLIKPSNGGTSYNQKFKGRVTISADKSISTAYLQWSSLKASDTAMYYCAHGHYESYFAMDYWGQGTLVTVSS
VL: DIQMTQSPSSLSASVGDRVTITCKASQDVSSAVAWYQQKPGQAPRLLIYWASTRHTGVPSRFSGSGSGTEFTLTISSLQPDDFATYYCQELFSTPLTFGQGTKVEIK
For the molecule B6, the “Affinity ELISA CPE mutant ratio (1:3, pH 6.0/7.4)” value in the assay with Axl protein [1] came out at 2.8 ratio. Further, the “Affinity ELISA CPE mutant ratio (1:9, pH 6.0/7.4)” value with Axl protein [2] came to 2.08 ratio.

B7: LC-H091F (antibody, V domains shown)
VH: EVQLVQSGAEVKKPGATVKISCKVSGYSFTGHTMNWIRQPPGKGLEWIGLIKPSNGGTSYNQKFKGRVTISADKSISTAYLQWSSLKASDTAMYYCAHGHYESYFAMDYWGQGTLVTVSS
VL: DIQMTQSPSSLSASVGDRVTITCKASQDVSSAVAWYQQKPGQAPRLLIYWASTRHTGVPSRFSGSGSGTEFTLTISSLQPDDFATYYCQEFFSTPLTFGQGTKVEIK
With B7, the “Affinity ELISA CPE mutant ratio (1:3, pH 6.0/7.4)” value with Axl protein [1] is 1.6 ratio. In the assay with Axl protein [2], the “Affinity ELISA CPE mutant ratio (1:9, pH 6.0/7.4)” value was determined as 2.12 ratio.

B8: LC-P095E (antibody, V domains shown)
VH: EVQLVQSGAEVKKPGATVKISCKVSGYSFTGHTMNWIRQPPGKGLEWIGLIKPSNGGTSYNQKFKGRVTISADKSISTAYLQWSSLKASDTAMYYCAHGHYESYFAMDYWGQGTLVTVSS
VL: DIQMTQSPSSLSASVGDRVTITCKASQDVSSAVAWYQQKPGQAPRLLIYWASTRHTGVPSRFSGSGSGTEFTLTISSLQPDDFATYYCQEHFSTELTFGQGTKVEIK
B8: the “Affinity ELISA CPE mutant ratio (1:3, pH 6.0/7.4)” value with Axl protein [1] was 7.12 ratio. Besides, the “Affinity ELISA CPE mutant ratio (1:9, pH 6.0/7.4)” value in the assay with Axl protein [2] was found to be 7.51 ratio.

B9: LC-P095D (antibody, V domains shown)
VH: EVQLVQSGAEVKKPGATVKISCKVSGYSFTGHTMNWIRQPPGKGLEWIGLIKPSNGGTSYNQKFKGRVTISADKSISTAYLQWSSLKASDTAMYYCAHGHYESYFAMDYWGQGTLVTVSS
VL: DIQMTQSPSSLSASVGDRVTITCKASQDVSSAVAWYQQKPGQAPRLLIYWASTRHTGVPSRFSGSGSGTEFTLTISSLQPDDFATYYCQEHFSTDLTFGQGTKVEIK
Consider B9, for which the “Affinity ELISA CPE mutant ratio (1:3, pH 6.0/7.4)” value in the assay with Axl protein [1] turned out to be 3.95 ratio. The “Affinity ELISA CPE mutant ratio (1:9, pH 6.0/7.4)” value with Axl protein [2] is 2.89 ratio.

B10: LC-P095C (antibody, V domains shown)
VH: EVQLVQSGAEVKKPGATVKISCKVSGYSFTGHTMNWIRQPPGKGLEWIGLIKPSNGGTSYNQKFKGRVTISADKSISTAYLQWSSLKASDTAMYYCAHGHYESYFAMDYWGQGTLVTVSS
VL: DIQMTQSPSSLSASVGDRVTITCKASQDVSSAVAWYQQKPGQAPRLLIYWASTRHTGVPSRFSGSGSGTEFTLTISSLQPDDFATYYCQEHFSTCLTFGQGTKVEIK
As for B10, in the assay with Axl protein [1], the “Affinity ELISA CPE mutant ratio (1:3, pH 6.0/7.4)” value came out at 2.35 ratio. Besides, in the assay with Axl protein [2], the “Affinity ELISA CPE mutant ratio (1:9, pH 6.0/7.4)” value amounted to 2.63 ratio.

B11: LC-A051N (antibody, V domains shown)
VH: EVQLVQSGAEVKKPGATVKISCKVSGYSFTGHTMNWIRQPPGKGLEWIGLIKPSNGGTSYNQKFKGRVTISADKSISTAYLQWSSLKASDTAMYYCAHGHYESYFAMDYWGQGTLVTVSS
VL: DIQMTQSPSSLSASVGDRVTITCKASQDVSSAVAWYQQKPGQAPRLLIYWNSTRHTGVPSRFSGSGSGTEFTLTISSLQPDDFATYYCQEHFSTPLTFGQGTKVEIK
As to B11, the “Affinity ELISA CPE mutant ratio (1:3, pH 6.0/7.4)” value with Axl protein [1] stood at 1.41 ratio. Besides, the “Affinity ELISA CPE mutant ratio (1:9, pH 6.0/7.4)” value in the assay with Axl protein [2] was 2.2 ratio.

B12: LC-P095K (antibody, V domains shown)
VH: EVQLVQSGAEVKKPGATVKISCKVSGYSFTGHTMNWIRQPPGKGLEWIGLIKPSNGGTSYNQKFKGRVTISADKSISTAYLQWSSLKASDTAMYYCAHGHYESYFAMDYWGQGTLVTVSS
VL: DIQMTQSPSSLSASVGDRVTITCKASQDVSSAVAWYQQKPGQAPRLLIYWASTRHTGVPSRFSGSGSGTEFTLTISSLQPDDFATYYCQEHFSTKLTFGQGTKVEIK
With B12, in the assay with Axl protein [1], the “Affinity ELISA CPE mutant ratio (1:3, pH 6.0/7.4)” value was found to be 3.84 ratio. In addition, the “Affinity ELISA CPE mutant ratio (1:9, pH 6.0/7.4)” value with Axl protein [2] stood at 3.47 ratio.

B13: LC-P095H (antibody, V domains shown)
VH: EVQLVQSGAEVKKPGATVKISCKVSGYSFTGHTMNWIRQPPGKGLEWIGLIKPSNGGTSYNQKFKGRVTISADKSISTAYLQWSSLKASDTAMYYCAHGHYESYFAMDYWGQGTLVTVSS
VL: DIQMTQSPSSLSASVGDRVTITCKASQDVSSAVAWYQQKPGQAPRLLIYWASTRHTGVPSRFSGSGSGTEFTLTISSLQPDDFATYYCQEHFSTHLTFGQGTKVEIK
Turning to B13, in the assay with Axl protein [1], the “Affinity ELISA CPE mutant ratio (1:3, pH 6.0/7.4)” value was 2.5 ratio. Moreover, the “Affinity ELISA CPE mutant ratio (1:9, pH 6.0/7.4)” value with Axl protein [2] came out at 2.75 ratio.
